Reference: patent US20100077492A1

Target: human PC4 protein (full length wild type) (human) (UniProt P53999)
Test: cell-based or functional assay

- PC4 binding to a 10-nt DNA bubble substrate in an electrophoretic mobility shift assay after pre-incubation of the DNA with XPG: 44 nM
Substance: purified human XPG (without HMK tag) (from UniProt P28715 1-1186) (enzyme)
